{"source": "the DeepSol protein solubility set"}
{"test": "soluble on expression in E. coli; label from the status in PepcDB or PDB records"}
{"sequence": "MQETRLMENEYSVNLPTKFWYRGKTYNGFINLVNIFRATMILGTPGSGKSYAIVNQFIKQTIEKSYALYIYDFKFDDLSVIAYNHLLKYRYRYKVPPKFYVINFDNPRKSHRCNPLAPELMTDISDAYESSYTIMLNLNKSWVQKQGDFFVESPIVLFTAIIWFLKIYEGGKFCTFPHAIELLNKRYEDVFTILTSYPDLENYLSPFIDAWKGGASEQLQGQIASAKIPLSRLISPQLYWVMSGSDFTLDINNPKEPKVLCVGNNPDRISIYGAALGLYNSRIVKLINKKKQLKSCVIIDELPTIFFKGLDNLIATARSNKVAVVLGFQDFSQLKRDYGDKEAAVIMSTVGNVFSGQVVGETAKTLSERFGKILQKRESMSINRNDTSTSINTQLDSLIPASKISTLSQGMFVGAVADNFGETIEQKIFHAQIVVDNEAVQKETAAYQPIPEISSFLDENGNDTMEQQIQANYRQIKQDIVELVENELIRIENDPELKYLLNNEM", "soluble on expression in E. coli": "not soluble"}
{"sequence": "MQFGRHISGQFNVELESIRSQVLTMGGLVEQQLTLAMQALHEDDEKLARRVIADDHKVNAMEVSIDEACTRIIAKRQPTAKDLRLIMAIIKTITDLERIGDSATKMAYIAIERPPAKQHQFQVSLEPLCRQAIAMLHQVLDAFARMDVEAAAEIYKQDDRLDKEYEAVVRQLMTYMMEDPKNIPHILQVIWSARAIERVGDRCQNICEYIIYFVKGKDVRHLGDQGIDDVLKKPSL", "soluble on expression in E. coli": "not soluble"}
{"sequence": "MQFLQNIPPYLFFTGKGGVGKTSISCATAIRLAEQGKRVLLVSTDPASNVGQVFSQTIGNTIQAIASVPGLSALEIDPQAAAQQYRARIVDPIKGVLPDDVVSSINEQLSGACTTEIAAFDEFTGLLTDASLLTRFDHIIFDTAPTGHTIRLLQLPGAWSSFIDSNPEGASCLGPMAGLEKQREQYAYAVEALSDPKRTRLVLVARLQKSTLQEVARTHLELAAIGLKNQYLVINGVLPKTEAANDTLAAAIWEREQEALANLPADLAGLPTDTLFLQPVNMVGVSALSRLLSTQPVASPSSDEYLQQRPDIPSLSALVDDIARNEHGLIMLMGKGGVGKTTMAAAIAVRLADMGFDVHLTTSDPAAHLSMTLNGSLNNLQVSRIDPHEETERYRQHVLETKGKELDEAGKRLLEEDLRSPCTEEIAVFQAFSRVIREAGKRFVVMDTAPTGHTLLLLDATGAYHREIAKKMGEKGHFTTPMMLLQDPERTKVLLVTLPETTPVLEAANLQADLERAGIHPWGWIINNSLSIADTRSPLLRMRAQQELPQIESVKRQHASRVALVPVLASEPTGIDKLKQLAGHHHHHH", "soluble on expression in E. coli": "soluble"}
{"sequence": "MQHFSRSVALLALSAGTLTSLPALAADELHYNQISLRAEVSQEVARDLMIVTLYSESQNTDPAKLAAEITTTMNKALDQARQVKDVTLRQGSRNSYPIYDGKGQKITGWRERAELRLESSDFAALSKLTGELLGDLKMGGMDFAIADPTRKASEDALLKDAVKAFKARAQLATEALGGKGYKIVNLNLNSNGYPQPYMRAPMMMKAASMDSAPVTPEVEAGTSQVSMTADGAIEVLMPLEHHHHHH", "soluble on expression in E. coli": "soluble"}
{"sequence": "MQHKLIAFIGGGNMAQAIILGLLKQGYPAEQIIVNDPNEEKRAFFANLDVATSENNVGSAIKAEVVLLAVKPQMMAEVCSPLSAVDFSDKLLISIAAGISTERLNALIPSVKSIVRVMPNTPALVGEGMAGLFAPKNTSENYRTFAQDLLGAVGRTVWVNDETQMHAVTAASGSSPAYFFLMLEAMQKALIKMNIDEKTARELVQQSMLGAAKMVTENPQIALSTLRENVTSKGGTTAAALAVFDAQHFNQTIEQAMQACLSRSQEMETLF", "soluble on expression in E. coli": "soluble"}
{"sequence": "MQIGANSLLQEMQSLKGEVTPSFGISPNNIVQQVNNTSGADFGQLLSQAIGNVSGLQSTSSNLATRLDMGDTTVSLSDSVIAREKASVAFEATIQVRNKLVEAYKEIMSMPV", "soluble on expression in E. coli": "not soluble"}
{"sequence": "MQKLILSALFVALVAADCNMRCPDGYMSFKRTPTPKNSMTGMAILSDTLISPNQAKKVCEKDGSILTSFENFDERTKLSTVLRDFLTAKKLDRGSMIVDGHRLKNCETTDKTVLATVECRNSSSGFTTDEKHTDNTFMWKSWSATEPGQTIFEKSIESCLQLSISQFPARSELINDVFCNYVKHPENEGASDLWNYGAVCGRFPEWI", "soluble on expression in E. coli": "not soluble"}
{"sequence": "MQLEDYTAATNIAKKDFMPGTTKIDRALTGQVAGLQVKRSSGMPGEGSYYNLRGIRTLTGDNAPLIVINGVPHMPDKTPSALIDGFTRDIFQFYHLQDIQNITILKGAEAAMYGSMGSNGVILIETDGTASN", "soluble on expression in E. coli": "not soluble"}
{"sequence": "MQLLITGGTGLIGRHLIQRLQLLSHHITVLTRDPERARGVLGNQVEYWSTLSNITSLNDFDGVINLAGEPIADKRWTPQQKQRLAQSRWSITEQLATLIKASSEPPTVFISGSAVGYYGDQGEALVTEGESPVDEFTHHLCTRWEALAQSAESDKTRVCLLRTGIVLSAQGGALAKMLPIFRLGLGGPMGSGKQYMPWIHIDDMVNGIIYLLDQPILRGPFNMVAPYPVHNEQFSAMLAHVLDRPGFLRAPAFAMKLLMGEASTLVLGGQRAIPQRLEAAGFGFRFFELEEALQDVTKKPGLEHHHHHH", "soluble on expression in E. coli": "soluble"}
{"sequence": "MQLRKMQTIKKEPAPLDPTSSSDKMLLLNSALAEVAEDLASGEDLLLNEGSMGKNKSSACRRKREFIPDEKKDAMYWEKRRKNNEAAKRSREKRRLNDLVLENKLIALGEENATLKAELLSLKLKFGLISSTAYAQEIQKLSNSTAVYFQDYQTSKAAVSSFVDEHEPAMVAGSCISVIKHSPQSSLSDVSEVSSVEHTQESPAQGGCRSPENKFPVIKQEPVELESFAREAREERGTYSTSIYQSYMGSSFSTYSHSPPLLQVHGSTSNSPRTSEADEGVVGKSSDGEDEQQVPKGPIHSPVELQRVHATVVKVPEVNPSALPHKLRIKAKAMQVKVEALDSEFEGMQKLSSPADAIAKRHFDLEKHGTSGMAHSSLPPFSVQVTNIQDWSLKSEHWHHKELSSKTQSSFKTGVVEVKDGGYKVSEAENLYLKQGIANLSAEVVSLKRFIATQPISASDSR", "soluble on expression in E. coli": "not soluble"}
{"sequence": "MQLRKMQTVKKEQASLDASSNVDKMMVLNSALTEVSEDSTTGEELLLSEGSVGKNKSSACRRKREFIPDEKKDAMYWEKRRKNNEAAKRSREKRRLNDLVLENKLIALGEENATLKAELLSLKLKFGLISSTAYAQEIQKLSNSTAVYFQDYQTSKSNVSSFVDEHEPSMVSSSCISVIKHSPQSSLSDVSEVSSVEHTQESSVQGSCRSPENKFQIIKQEPMELESYTREPRDDRGSYTASIYQNYMGNSFSGYSHSPPLLQVNRSSSNSPRTSETDDGVVGKSSDGEDEQQVPKGPIHSPVELKHVHATVVKVPEVNSSALPHKLRIKAKAMQIKVEAFDNEFEATQKLSSPIDMTSKRHFELEKHSAPSMVHSSLTPFSVQVTNIQDWSLKSEHWHQKELSGKTQNSFKTGVVEMKDSGYKVSDPENLYLKQGIANLSAEVVSLKRLIATQPISASDSG", "soluble on expression in E. coli": "soluble"}
{"sequence": "MQLRSVIAADHPALFALWSRTPGIRLRAEDAYPFFLAYLQRNPGLSLLVETEGEVIACLMAGHDGRRGYLQHLVVDPGYRGLGLARRMLDEVLARLAREGIGKSHVFVLDAAEEAQAFWRAQSDWERRKDIQVFSTREGHA", "soluble on expression in E. coli": "soluble"}
{"sequence": "MQLTIKNKDLNTLYRVLDKIKITNMRANRGRAKLLAKVVDKINEYAKDETDLIDMYAAKDKDDKFVIDEHKNIKLADPAKLDELNDLLNELADEEIVIKGGEYSKRFIDFLNFLEECEDEFTSSEIILIDNILEQFEESKKGE", "soluble on expression in E. coli": "not soluble"}
{"sequence": "MQMPRRFNTYCPHCNEHQEHEVEKVRSGRQTGMKWIDRQRERNSGIGNDGKFSKVPGGDKPTKKTDLKYRCGECGKAHLREGWRAGRLEFQE", "soluble on expression in E. coli": "soluble"}
{"sequence": "MQNLRTDVLIIGGGEAGLVAGCRALTMGQKVILVEKNGYLGGATILNGSNVVGTGSDVAAQIFDNNHDTPEMLAQDVARESLETNYPALTDLMVHNIGPAIDFISKFADLHYQKAQTQTPEHSINRQIELPSASSYEFIQKVSKAFAAAGGQIMLDTRVEKLMLDNDKKLRGVIAAQKDQTVNIKARSVVLAAGGHGANQKMRGTESEGIDYYGPMTSTGDAYQFNGDLDLQTHDLGWYKLYPHGVEVEPGVAKLTTYASKQATDMGAIYVNSKGDRIVNESNVYTTFRNAILKQADKVAYLVMDERTWKKVYDLLILHDFTPEEIKSFFENKGKRPVFVKGSLESAAEQAGIVVDELVQTVKNYQGYVQDGHDHDFGRDPKYLHQFEGETFYIIEQRDRFATTLGGYSVDADNLQLVTTKNAPVANYFGAGEIIGGANGHDSMPSMMNTWGISSGYVAGAAASENAQRQATAGAAALEHHHHHH", "soluble on expression in E. coli": "soluble"}
{"sequence": "MQNVVGIDFQKSGKMEYYSPKGFDLDVGDWVVVESKRGLEMGRVKYAPLDVADQDVTLPLKEIVRLATEDDLLQYEKNEYDADEAMALCKETIQQHELEMRLVNCEYTLDKSKVIFNFTSDERVDFRKLVKVLAQKLKTRIELRQIGVRDEAKLLGGIGPCGRSLCCSTFLGDFEPVSIKMAKDQNLSLNPTKISGACGRLMCCLKYENDYYEEARAQLPDVGDAIETPEGNGKVIGLNILDISMQVKVEGLEQPLEYKMEELETLNLEHHHHHH", "soluble on expression in E. coli": "not soluble"}
{"sequence": "MQPTRRSYSNPFKAQVIQECSQPGASIASVALSHNLNANLVHKWIRLHAQKSPTLPPAFIPLAMPPAGANPHPASPNICVEIQHTRGTVKVSWPTENAAACATFLRDLLRLEHHHHHH", "soluble on expression in E. coli": "not soluble"}
{"sequence": "MQQASHPTVILGGGFAGLFTALHLSQQNYSYPIILIEQRDRFSFKPLLYELLSGELHSQQVYPRYQELLAGSKVKFVQDTVQSIDIHQQRVDTVSGQAFHYSNLILALGSKTTYFATPGAAEYAMPFTSGEQAIALRQHLRHKLYQAIQTSDSERRRLLLTVAIIGAGPSGIELACTLADLLPIWYDELGGDGSEIHVVLVNRSREILKGDVNSHLRCTVERAMKNRLIPVDFLFDAAVTKITPDGVECRRHGQIQMLQAGTIAWTAGTAPHPLLMELPVSQNRGRLLVKPTLQLSNFPEIFAAGDCATDSDHPQPPTAQVAYQQGIAIAQNLQRISQNKPTIPVQLEHHHHHH", "soluble on expression in E. coli": "not soluble"}
{"sequence": "MQQVFKKPVSLKDVQTHFCPGCHHGTFHRLVAEAMDEFGVQKKTIGVASVGCSVFLYGYFDIDVVEAPHGRAPAVATGVKRARPDAFVFTYQGDGDLAAIGTSEIIHAANRGEDITVIFVNNTTYGMTGGQMAPTTLVGQRTSTSPYGRKNEKDGSPIRMAELLAQLEGVAFSARVAVNNPKNLMDAKRQIKKAFRYQAEGKGFSFIEALSSCPTNWGMDALAANERVGTEMCA", "soluble on expression in E. coli": "not soluble"}
{"sequence": "MQRHTLPLRPLLGTLLLGLLLAGCDASRDDATALGPVPIASGDECHVCGMLIEEMPGPKGESVLPGAVRKFCSTAELFGWWLQPENRQGQARLYVHDMSQADWRHPDDARLIDATRAYYVVGIQRPGGMGATLASFADEEAATRLAAEEGGRVLRFDEIDQAVLQGVGGDHPHRHPAH", "soluble on expression in E. coli": "not soluble"}
{"sequence": "MQRIETRKVKVGSVYVGGDSRVTVQSMTNTDTRDSKKTIEQIKKLEIAGCDIVRCAVPDFDAASSLSEITKNVKLPVVADIHFDYRLALEAIKNGVSALRINPGNIGSKERVELVAKSAKEKNIPIRIGVNSGSLEKDILNKYKRVCSEALVESALNHVKILEDVNFNDIVISIKSSNVQMMIDSYRLISKEVNYPLHLGVTEAGTIWRGTIKSSIGIGTLLSEGIGDTIRVSLTGDPVEEVKVGREILKTFGYLKSGVEFISCPTCGRTSIDLIKIANEVEKRLEKTNKSIKVAVMGCVVNGPGEAREADIGIAGGKGEGLIFKKGEIIKKVKEENLVDELMREIDNMLEHHHHHH", "soluble on expression in E. coli": "not soluble"}
{"sequence": "MQSSTEKELLTNASLTVSSDFASNLEGALPSQPITQANPRAEQTLMTTYMSSTTNQADPKTFEEQFVNLLGTFTPSQAVCNVSNVDCGTYVRGPETWSSCKLGTQAIAPNASYIQIRVQDKHSTMDRMNWKGPIEDTSPLMKSLTANFL", "soluble on expression in E. coli": "not soluble"}
